In US9260500B2, “Peptide and use thereof” (Takeda Pharmaceutical Company Limited, priority 2009, dated 2016):
Non-standard residues stand in square brackets, D forms with d. *: point of attachment. Tyr(2-F) = N[C@@H](Cc1ccc(O)cc1F)C(=O)O; Cyclohexanecarbonyl = O=C(C1CCCCC1)*; Arg(Me) = CNC(=N)NCCC[C@H](N)C(=O)O; hArg = N=C(N)NCCCC[C@H](N)C(=O)O; 4Pal = N[C@@H](Cc1ccncc1)C(=O)O; dHyp = O=C(O)[C@H]1C[C@H](O)CN1; Cha = N[C@@H](CC1CCCCC1)C(=O)O; dCha = N[C@H](CC1CCCCC1)C(=O)O; αMeP = C[C@@]1(C(=O)O)CCCN1; Isobutyryl = CC(C)C(=O)*; Iva = CC[C@](C)(N)C(=O)O; Nle = CCCC[C@H](N)C(=O)O; dNMeA = CN[C@H](C)C(=O)O; Nva = CCC[C@H](N)C(=O)O; dAze = O=C(O)[C@H]1CCN1; Abu = CC[C@H](N)C(=O)O; Aib = CC(C)(N)C(=O)O; Bz = O=C(c1ccccc1)*

Legend:
human Y2 receptor [1] = molecular target: T1, human Y2 receptor (Homo sapiens, UniProt P49146); experiment: Human Y2 Receptor G Protein Binding Assay (GBA), [35S]GTPγS; assay type: biochemical; settings: EC50 of test compound/EC50 of PYY(3-36) (PYY3-36 taken as 1), hY2R/CHO membrane fraction
T1 construct: expressed in transfected cells; membrane fraction
T1 sequence (P49146 1-381): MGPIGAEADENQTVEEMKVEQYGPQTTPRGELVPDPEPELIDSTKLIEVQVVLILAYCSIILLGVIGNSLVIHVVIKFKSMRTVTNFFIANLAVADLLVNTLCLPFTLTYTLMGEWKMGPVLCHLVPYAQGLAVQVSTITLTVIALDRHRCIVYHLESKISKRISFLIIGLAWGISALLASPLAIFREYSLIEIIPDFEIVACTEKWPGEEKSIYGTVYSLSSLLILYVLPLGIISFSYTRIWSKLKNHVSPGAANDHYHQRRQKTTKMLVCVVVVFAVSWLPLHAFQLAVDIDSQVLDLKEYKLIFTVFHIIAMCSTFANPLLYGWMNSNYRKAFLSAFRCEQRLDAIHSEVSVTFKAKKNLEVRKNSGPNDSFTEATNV
How it was run: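 Agonism measured as [35S]GTPγS binding, read by GF/C filtration and scintillation counting after 120 min at room temperature, using human Y2 membranes at 1 μg protein/mL in pH 7.4 Tris/MgCl2/NaCl/GDP buffer. Compound serially diluted 100 μM–1 nM; EC50 normalized to PYY(3-36) (ratio = compound/PYY).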

human Y2 receptor [2] = molecular target: T1, human Y2 receptor; experiment: Receptor Binding Assay (RBA) for Human Y2, [125I]-PYY displacement on hY2R/CHO membrane fraction; settings: IC50 of test compound/IC50 of PYY(3-36) (PYY(3-36) taken as 1)
How it was run: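 Read-out is [125I]-PYY displacement from membranes of CHO/dhfr− cells stably transfected with human Y2R. Membranes were obtained by disrupting cells in a buffer of 10 mM NaHCO3, 5 mM EDTA and protease inhibitors.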

Substance | GBA EC50 Ratio (human Y2 receptor [1]) | RBA IC50 Ratio (human Y2 receptor [2])
Ac-[D-Cha24, Abu26, Cha27,28,36, Aib31]-PYY(24-36) (Ac-[dCha]R[Abu][Cha][Cha]NL[Aib]TRQR[Cha]-NH2; SMILES CC[C@H](NC(=O)[C@H](CCCNC(=N)N)NC(=O)[C@@H](CC1CCCCC1)NC(C)=O)C(=O)N[C@@H](CC1CCCCC1)C(=O)N[C@@H](CC1CCCCC1)C(=O)N[C@@H](CC(N)=O)C(=O)N[C@@H](CC(C)C)C(=O)NC(C)(C)C(=O)N[C@H](C(=O)N[C@@H](CCCNC(=N)N)C(=O)N[C@@H](CCC(N)=O)C(=O)N[C@@H](CCCNC(=N)N)C(=O)N[C@@H](CC1CCCCC1)C(N)=O)[C@@H](C)O) [compound No. 84] | 13 | 15
Ac-[D-Pro24, Arg(Me)25, Cha27,36, Aib28,31, Lys30]-PYY(23-36) (Ac-S[dP][Arg(Me)]H[Cha][Aib]NK[Aib]TRQR[Cha]-NH2; SMILES CNC(=N)NCCC[C@H](NC(=O)[C@H]1CCCN1C(=O)[C@H](CO)NC(C)=O)C(=O)N[C@@H](Cc1c[nH]cn1)C(=O)N[C@@H](CC1CCCCC1)C(=O)NC(C)(C)C(=O)N[C@@H](CC(N)=O)C(=O)N[C@@H](CCCCN)C(=O)NC(C)(C)C(=O)N[C@H](C(=O)N[C@@H](CCCNC(=N)N)C(=O)N[C@@H](CCC(N)=O)C(=O)N[C@@H](CCCNC(=N)N)C(=O)N[C@@H](CC1CCCCC1)C(N)=O)[C@@H](C)O) [compound No. 281] | 1.8 | 1.8
Isobutanoyl-[Asp23, D-Hyp24, Cha27,28,36, Aib31]-PYY(23-36) (Isobutyryl-D[dHyp]RH[Cha][Cha]NL[Aib]TRQR[Cha]-NH2; SMILES CC(C)C[C@H](NC(=O)[C@H](CC(N)=O)NC(=O)[C@H](CC1CCCCC1)NC(=O)[C@H](CC1CCCCC1)NC(=O)[C@H](Cc1c[nH]cn1)NC(=O)[C@H](CCCNC(=N)N)NC(=O)[C@H]1C[C@H](O)CN1C(=O)[C@H](CC(=O)O)NC(=O)C(C)C)C(=O)NC(C)(C)C(=O)N[C@H](C(=O)N[C@@H](CCCNC(=N)N)C(=O)N[C@@H](CCC(N)=O)C(=O)N[C@@H](CCCNC(=N)N)C(=O)N[C@@H](CC1CCCCC1)C(N)=O)[C@@H](C)O) [compound No. 127] | 3.1 | 2.6
Ac-[D-Pro24, Iva25, Cha27,36, Aib28,31, Lys30]-PYY(23-36) (Ac-S[dP][Iva]H[Cha][Aib]NK[Aib]TRQR[Cha]-NH2; SMILES CC[C@](C)(NC(=O)[C@H]1CCCN1C(=O)[C@H](CO)NC(C)=O)C(=O)N[C@@H](Cc1c[nH]cn1)C(=O)N[C@@H](CC1CCCCC1)C(=O)NC(C)(C)C(=O)N[C@@H](CC(N)=O)C(=O)N[C@@H](CCCCN)C(=O)NC(C)(C)C(=O)N[C@H](C(=O)N[C@@H](CCCNC(=N)N)C(=O)N[C@@H](CCC(N)=O)C(=O)N[C@@H](CCCNC(=N)N)C(=O)N[C@@H](CC1CCCCC1)C(N)=O)[C@@H](C)O) [compound No. 239] | 5.2 | 8.8
Ac-[D-Pro24, Pya(4)26, Cha27,36, Aib28,31, Lys(Me2)30]-PYY(23-36) [compound No. 264] | 1.7 | 1.1
Cyclohexanecarbonyl-[Nle26, Cha27,28,36, Aib31]-PYY(25-36) (Cyclohexanecarbonyl-R[Nle][Cha][Cha]NL[Aib]TRQR[Cha]-NH2; SMILES CCCC[C@H](NC(=O)[C@H](CCCNC(=N)N)NC(=O)C1CCCCC1)C(=O)N[C@@H](CC1CCCCC1)C(=O)N[C@@H](CC1CCCCC1)C(=O)N[C@@H](CC(N)=O)C(=O)N[C@@H](CC(C)C)C(=O)NC(C)(C)C(=O)N[C@H](C(=O)N[C@@H](CCCNC(=N)N)C(=O)N[C@@H](CCC(N)=O)C(=O)N[C@@H](CCCNC(=N)N)C(=O)N[C@@H](CC1CCCCC1)C(N)=O)[C@@H](C)O) [compound No. 77] | 33 | 50
Ac-[Leu22, D-Pro24, Pya(4)26, Cha27,36, Aib28,31, Lys30]-PYY(22-36) (Ac-LS[dP]R[4Pal][Cha][Aib]NK[Aib]TRQR[Cha]-NH2; SMILES CC(=O)N[C@@H](CC(C)C)C(=O)N[C@@H](CO)C(=O)N1CCC[C@@H]1C(=O)N[C@@H](CCCNC(=N)N)C(=O)N[C@@H](Cc1ccncc1)C(=O)N[C@@H](CC1CCCCC1)C(=O)NC(C)(C)C(=O)N[C@@H](CC(N)=O)C(=O)N[C@@H](CCCCN)C(=O)NC(C)(C)C(=O)N[C@H](C(=O)N[C@@H](CCCNC(=N)N)C(=O)N[C@@H](CCC(N)=O)C(=O)N[C@@H](CCCNC(=N)N)C(=O)N[C@@H](CC1CCCCC1)C(N)=O)[C@@H](C)O) [compound No. 274] | 1.0 | 1.2
Isobutanoyl-[Abu26, Cha27,28, Aib31, Tyr(2F)36]-PYY(25-36) (Isobutyryl-R[Abu][Cha][Cha]NL[Aib]TRQR[Tyr(2-F)]-NH2; SMILES CC[C@H](NC(=O)[C@H](CCCNC(=N)N)NC(=O)C(C)C)C(=O)N[C@@H](CC1CCCCC1)C(=O)N[C@@H](CC1CCCCC1)C(=O)N[C@@H](CC(N)=O)C(=O)N[C@@H](CC(C)C)C(=O)NC(C)(C)C(=O)N[C@H](C(=O)N[C@@H](CCCNC(=N)N)C(=O)N[C@@H](CCC(N)=O)C(=O)N[C@@H](CCCNC(=N)N)C(=O)N[C@@H](Cc1ccc(O)cc1F)C(N)=O)[C@@H](C)O) [compound No. 86] | 11 | 19
Benzoyl-[Nva27, Cha28,36, Aib31]-PYY(25-36) (Bz-RH[Nva][Cha]NL[Aib]TRQR[Cha]-NH2; SMILES CCC[C@H](NC(=O)[C@H](Cc1c[nH]cn1)NC(=O)[C@H](CCCNC(=N)N)NC(=O)c1ccccc1)C(=O)N[C@@H](CC1CCCCC1)C(=O)N[C@@H](CC(N)=O)C(=O)N[C@@H](CC(C)C)C(=O)NC(C)(C)C(=O)N[C@H](C(=O)N[C@@H](CCCNC(=N)N)C(=O)N[C@@H](CCC(N)=O)C(=O)N[C@@H](CCCNC(=N)N)C(=O)N[C@@H](CC1CCCCC1)C(N)=O)[C@@H](C)O) [compound No. 103] | 8.6 | 13
Ac-[D-Aze(2)24, Cha27,28,36, Aib31]-PYY(23-36) (Ac-S[dAze]RH[Cha][Cha]NL[Aib]TRQR[Cha]-NH2; SMILES CC(=O)N[C@@H](CO)C(=O)N1CC[C@@H]1C(=O)N[C@@H](CCCNC(=N)N)C(=O)N[C@@H](Cc1c[nH]cn1)C(=O)N[C@@H](CC1CCCCC1)C(=O)N[C@@H](CC1CCCCC1)C(=O)N[C@@H](CC(N)=O)C(=O)N[C@@H](CC(C)C)C(=O)NC(C)(C)C(=O)N[C@H](C(=O)N[C@@H](CCCNC(=N)N)C(=O)N[C@@H](CCC(N)=O)C(=O)N[C@@H](CCCNC(=N)N)C(=O)N[C@@H](CC1CCCCC1)C(N)=O)[C@@H](C)O) [compound No. 153] | 1.3 | 1.7
Ac-[D-Pro24, Pya(4)26, Cha27,36, Aib28,31, Har30]-PYY(23-36) (Ac-S[dP]R[4Pal][Cha][Aib]N[hArg][Aib]TRQR[Cha]-NH2; SMILES CC(=O)N[C@@H](CO)C(=O)N1CCC[C@@H]1C(=O)N[C@@H](CCCNC(=N)N)C(=O)N[C@@H](Cc1ccncc1)C(=O)N[C@@H](CC1CCCCC1)C(=O)NC(C)(C)C(=O)N[C@@H](CC(N)=O)C(=O)N[C@@H](CCCCNC(=N)N)C(=O)NC(C)(C)C(=O)N[C@H](C(=O)N[C@@H](CCCNC(=N)N)C(=O)N[C@@H](CCC(N)=O)C(=O)N[C@@H](CCCNC(=N)N)C(=O)N[C@@H](CC1CCCCC1)C(N)=O)[C@@H](C)O) [compound No. 277] | 0.79 | 0.36
Ac-[αMePro24, Cha27,28,36, Aib31]-PYY(23-36) (Ac-S[αMeP]RH[Cha][Cha]NL[Aib]TRQR[Cha]-NH2; SMILES CC(=O)N[C@@H](CO)C(=O)N1CCC[C@@]1(C)C(=O)N[C@@H](CCCNC(=N)N)C(=O)N[C@@H](Cc1c[nH]cn1)C(=O)N[C@@H](CC1CCCCC1)C(=O)N[C@@H](CC1CCCCC1)C(=O)N[C@@H](CC(N)=O)C(=O)N[C@@H](CC(C)C)C(=O)NC(C)(C)C(=O)N[C@H](C(=O)N[C@@H](CCCNC(=N)N)C(=O)N[C@@H](CCC(N)=O)C(=O)N[C@@H](CCCNC(=N)N)C(=O)N[C@@H](CC1CCCCC1)C(N)=O)[C@@H](C)O) [compound No. 154] | 1.3 | 2.8
Ac-[D-MeAla22, D-Pro24, Cha27,28,36, Aib31]-PYY(22-36) (Ac-[dNMeA]S[dP]RH[Cha][Cha]NL[Aib]TRQR[Cha]-NH2; SMILES CC(=O)N(C)[C@H](C)C(=O)N[C@@H](CO)C(=O)N1CCC[C@@H]1C(=O)N[C@@H](CCCNC(=N)N)C(=O)N[C@@H](Cc1c[nH]cn1)C(=O)N[C@@H](CC1CCCCC1)C(=O)N[C@@H](CC1CCCCC1)C(=O)N[C@@H](CC(N)=O)C(=O)N[C@@H](CC(C)C)C(=O)NC(C)(C)C(=O)N[C@H](C(=O)N[C@@H](CCCNC(=N)N)C(=O)N[C@@H](CCC(N)=O)C(=O)N[C@@H](CCCNC(=N)N)C(=O)N[C@@H](CC1CCCCC1)C(N)=O)[C@@H](C)O) [compound No. 124] | 6.1 | 3.5
